Here are results for one protein from PMC3898896 (Journal of Molecular Biology, 2013).

This data set concerns the molecule itself. Nature of the data set: crystal structure.

B1: N-terminal dimerization domain of S. pombe Cdc23 (Cdc23^N19-302,Y302A) (domain or fragment, UniProt O94556 19-302, looked up)
chain: QLREIRNCLLKCISECSERGLVYAVRWAAEMLNGMNPIEMEHIPFSSTPTGEFDLDPDMANEKLLEVEEKNIYLLAKSYFDCKEFERAAYTLQNCKSSKSIFLRLYSKYLAGEKKSEEENETLLNTNLTLSSTNREFYYISEVLESLHYQGNKDPYLLYLSGVVYRKRKQDSKAIDFLKSCVLKAPFFWSAWLELSLSIDSLETLTTVVSQLPSTHIMTKIFYVYASHELHQVNSSAYEKLAEAEIIFPNSRYLKTQRALLTYDSRDFDEAESLFENILTNDPA
Consider B1, for which the stoichiometry N (usually a count of units in the complex or per binding partner) was 2.
